Source: patent US12662542B2, “Agnostic anti-mullerian hormone receptor binding peptides” (OVARES D LLC, priority 2019, dated 2026)
Square brackets hold non-standard residues; d marks the D form. Ends that are not written are not given here. Peptide text beside a SMILES is read from it.

Assays:
AMH-R2 = target: T1, AMH-R2 (Homo sapiens, UniProt Q16671); assay: peptide microarray assay identifying AMH receptor binding peptides; conditions: microarray signal; for Average: average of Rep 1 and Rep 2; for Rep 1: replicate 1; for Rep 2: replicate 2
T1 construct: GST
T1 sequence (Q16671 18-573): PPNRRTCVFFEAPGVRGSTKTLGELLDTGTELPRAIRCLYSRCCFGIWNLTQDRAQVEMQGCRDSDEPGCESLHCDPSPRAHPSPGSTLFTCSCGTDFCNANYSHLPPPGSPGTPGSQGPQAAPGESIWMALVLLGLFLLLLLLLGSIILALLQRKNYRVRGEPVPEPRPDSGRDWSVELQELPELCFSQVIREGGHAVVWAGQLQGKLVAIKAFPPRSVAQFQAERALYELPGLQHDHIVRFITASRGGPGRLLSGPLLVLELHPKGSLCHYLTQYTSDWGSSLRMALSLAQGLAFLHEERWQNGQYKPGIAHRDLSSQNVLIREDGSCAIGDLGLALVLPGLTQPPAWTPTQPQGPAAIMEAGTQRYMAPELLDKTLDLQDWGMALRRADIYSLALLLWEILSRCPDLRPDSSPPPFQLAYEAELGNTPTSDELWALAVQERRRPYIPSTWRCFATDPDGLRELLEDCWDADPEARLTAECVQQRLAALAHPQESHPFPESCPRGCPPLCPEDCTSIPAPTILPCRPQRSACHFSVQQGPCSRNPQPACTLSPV
Source text: In view of the several actions of AMH, and because of the need for AMH receptor agonists and/or antagonist that can modify the activity of one or more of the AMH receptors, provided herein are AMH receptor binding peptides that modulate the activity of the AMH receptor, as described herein. Briefly, it was hypothesized that peptides that bind AMH receptors could be generated based on the amino acid sequence of the AMH biding site of the AMH-R2 receptor. More particularly, based on the amino acid sequence of the AMH-R2 that is responsible for binding AMH, as well as the amino acid sequences of AMH-R2 that are near the AMH binding site, a peptide microarray was used to identify candidate AMH receptor binding peptides that can activate AMH-R2 and thus produce similar effects to native AMH.
To identify candidate AMH receptor binding peptides described herein, a custom peptide library composed of replicate copies of a 124,000 17 mer peptide microarray was synthesized (Arizona State University, Tempe, AZ) using the method described in Legutki, J. B., et al., Scalable high-density peptide arrays for comprehensive health monitoring. Nat Commun., volume 5, 4785 (2014). The slide was assembled into an Arrayit 4×24 Hybridization Cassette and each peptide microarray was blocked with 150 uL of 30% human sera in 1×PBST for 1 hour at room temperature with shaking After blocking, the slide was washed 3× with 1×PBST using a Biotek plate washer prior to addition of protein targets. Each protein sample was diluted in 30% human sera in 1×PBST and 150 uL of each sample was dispensed into the appropriate wells in the cassette and incubated for 1 hour at 37 C with rotation at 300 rpm on a ThermoMix™ 500 heater/shaker.
After incubation, the cassette was dismantled, the slide washed 3 times in 1×PBST, rinsed three times with distilled, deionized water (ddH2O), and dried in a centrifuge for 2 minutes at 800 rpm. Secondary antibody (anti-GST, GE Healthcare™) was prepared at 10 nM in 30% human sera in 1×PBST and dispensed onto the slide. The slide was incubated for 1 hour at 37 C with rotation at 300 rpm as before. The slide was then washed 3 times in 1×PBST, rinsed 3 times with ddH2O, and dried in a centrifuge for 2 minutes at 800 rpm. Detection antibody, 10 nM Alexa Flour 647 donkey anti-goat IgG (H+L) (ThermoFisher Scientific™), was prepared in 0.75% casein in 1×PBST and dispensed onto the slide. The slide was covered and incubated for 1 hour at 37 C with rotation as before. The slide was washed 3 times in 1×PBST, rinsed 3 times with ddH2O, and dried in a centrifuge for 2 minutes at 800 rpm. The slide was scanned on an Innopsys™ Inoscan 910AL scanner and the resulting TIFF files were analyzed using the Genepix™ Pro 6.0 software. Data files were exported and analyzed using Microsoft Excel™ and JMP™ software.

granulosa cells (GCs) = assay: Cell Counting Kit-8 (CCK-8) proliferation and cytotoxicity assay; format: cell-based, human
Procedure: GCs were isolated at the time of oocyte retrieval from three IVF/ICSI patients with tubal factor infertility as previously reported. Follicular aspirates were centrifuged at 900×g at room temperature. Blood contaminants were removed from GCs by Histopaque™ 1077 (Sigma-Aldrich™, St. Louis, MO, USA) gradient centrifugation at 800×g for 20 min at room temperature. The GC pellet was resuspended in a 20-ml volume of medium [Dulbecco's modified Eagle's medium/Ham's Nutrient Mixture F-12 (Gibco, Thermo Fisher Scientific, Inc., Waltham, MA, USA) with 10% fetal bovine serum (make) and washed by a further 10-min centrifugation at 500×g. The GC pellet was then resuspended in 1 ml GC preparation medium containing 0.02% (w/v) EDTA and gentle repeated pipetting was performed to break up any cellular clumps. Following further washing, the cell stock was resuspended in the GC culture medium. The cells were seeded in nine-well cell culture plates at a density of 100,000 cells/well in medium and incubated for 24 hours with PBS (control), the NegAMHR2BP (SEQ ID NO: 4), or AMHR2BP (SEQ ID NO: 1).
For determination of cytotoxicity of the novel AMHR2BP (SEQ ID NO: 1), a Cell Counting Kit-8 (CCK-8) proliferation and cytotoxicity assay was used. CCK-8 is a as a sensitive colorimetric assay where Dojindo's highly water-soluble tetrazolium salt is reduced by dehydrogenase activities in cells. Living cells reduce the salt, producing a yellow-color formazan dye, which is soluble in the culture media. The amount of dye, generated by the activities of dehydrogenases in GCs, is directly proportional to the number of living cells. CCK-8 detection sensitivity is very high. We tested the following: (a) AMHR2BP (SEQ ID NO: 1) concentrations: 20 μg/ml, 50 μg/ml, 80 μg/ml, in addition to (b) NegAMHR2BP (SEQ ID NO: 4) 80 μg/ml, and (c) untreated cells (control).

kGSNArkNrrDaSGVal ([dK]GSNA[dR][dK]N[dR][dR]D[dA]SGV[dA][dL]) [SEQ ID NO: 20]
Average (AMH-R2): 47876
Rep 1 (AMH-R2): 52284
Rep 2 (AMH-R2): 43467

YwGwSHAkaNQFPNrla (Y[dW]G[dW]SHA[dK][dA]NQFPN[dR][dL][dA]) [SEQ ID NO: 3]
Average (AMH-R2): 65484
Rep 1 (AMH-R2): 65502
Rep 2 (AMH-R2): 65465

NGrSQAHNlrkaGValS (NG[dR]SQAHN[dL][dR][dK][dA]GV[dA][dL]S) [SEQ ID NO: 15]
Average (AMH-R2): 61488
Rep 1 (AMH-R2): 62940
Rep 2 (AMH-R2): 60035

wHGwSGANlFPYrSGVS ([dW]HG[dW]SGAN[dL]FPY[dR]SGVS) [SEQ ID NO: 8]
Average (AMH-R2): 65335
Rep 1 (AMH-R2): 65158
Rep 2 (AMH-R2): 65511

VGwSFAPNGYrlSGVlG (VG[dW]SFAPNGY[dR][dL]SGV[dL]G) [SEQ ID NO: 9]
Average (AMH-R2): 65165
Rep 1 (AMH-R2): 65176
Rep 2 (AMH-R2): 65153

rGrSQAYNErSGValSG ([dR]G[dR]SQAYNE[dR]SGV[dA][dL]SG) [SEQ ID NO: 10]
Average (AMH-R2): 64591
Rep 1 (AMH-R2): 63931
Rep 2 (AMH-R2): 65250

kGGYSNAYkHNPrVlGS ([dK]GGYSNAY[dK]HNP[dR]V[dL]GS) [SEQ ID NO: 7]
Average (AMH-R2): 65425
Rep 1 (AMH-R2): 65521
Rep 2 (AMH-R2): 65329

CC(C)C[C@@H](NC(=O)[C@@H](C)NC(=O)[C@@H](NC(=O)CNC(=O)[C@H](CO)NC(=O)[C@@H](NC(=O)[C@@H](CCCNC(=N)N)NC(=O)[C@H](Cc1ccccc1)NC(=O)[C@H](CCC(N)=O)NC(=O)[C@H](CC(N)=O)NC(=O)[C@H](Cc1ccc(O)cc1)NC(=O)[C@H](C)NC(=O)[C@H](CC(N)=O)NC(=O)[C@H](CO)NC(=O)CNC(=O)[C@@H](N)C(C)C)C(C)C)C(C)C)C(=O)N[C@@H](CO)C(=O)O [SEQ ID NO: 1, VGSNAYNQFrVSGValS] (H-VGSNAYNQF[dR]VSGV[dA][dL]S-OH)
GCs considered lifeless (granulosa cells (GCs); 20 μg/ml): 23%
GCs that ceased function and were considered lifeless (granulosa cells (GCs); 80 μg/ml): 74%

FNGPSArNFYrHDVaVS (FNGPSA[dR]NFY[dR]HDV[dA]VS) [SEQ ID NO: 14]
Average (AMH-R2): 61835
Rep 1 (AMH-R2): 65284
Rep 2 (AMH-R2): 58385

DGlGSVlArkNrrDaVl (DG[dL]GSV[dL]A[dR][dK]N[dR][dR]D[dA]V[dL]) [SEQ ID NO: 5]
Average (AMH-R2): 65453
Rep 1 (AMH-R2): 65431
Rep 2 (AMH-R2): 65475

GlQwSFANGQwrGalSG (G[dL]Q[dW]SFANGQ[dW][dR]G[dA][dL]SG) [SEQ ID NO: 12]
Average (AMH-R2): 63783
Rep 1 (AMH-R2): 64623
Rep 2 (AMH-R2): 62943

VGPSVAYNYrVSGValG (VGPSVAYNY[dR]VSGV[dA][dL]G) [SEQ ID NO: 6]
Average (AMH-R2): 65427
Rep 1 (AMH-R2): 65462
Rep 2 (AMH-R2): 65391

GGrSVSANlQrErkVaG (GG[dR]SVSAN[dL]Q[dR]E[dR][dK]V[dA]G) [SEQ ID NO: 19]
Average (AMH-R2): 56883
Rep 1 (AMH-R2): 55679
Rep 2 (AMH-R2): 58087

GlYwSAYNPwrHValaS (G[dL]Y[dW]SAYNP[dW][dR]HV[dA][dL][dA]S) [SEQ ID NO: 18]
Average (AMH-R2): 59177
Rep 1 (AMH-R2): 60848
Rep 2 (AMH-R2): 57506

YGFPSArVNrYwNrHDa (YGFPSA[dR]VN[dR]Y[dW]N[dR]HD[dA]) [SEQ ID NO: 16]
Average (AMH-R2): 61418
Rep 1 (AMH-R2): 60363
Rep 2 (AMH-R2): 62472

GSwSGAHNFrkSGVlSG (GS[dW]SGAHNF[dR][dK]SGV[dL]SG) [SEQ ID NO: 11]
Average (AMH-R2): 64458
Rep 1 (AMH-R2): 65128
Rep 2 (AMH-R2): 63787

EGlQSSAYNNYwrklVa (EG[dL]QSSAYNNY[dW][dR][dK][dL]V[dA]) [SEQ ID NO: 17]
Average (AMH-R2): 61198
Rep 1 (AMH-R2): 60241
Rep 2 (AMH-R2): 62155

rGSYSNlFANSGErVGV ([dR]GSYSN[dL]FANSGE[dR]VGV) [SEQ ID NO: 13]
Average (AMH-R2): 63774
Rep 1 (AMH-R2): 63996
Rep 2 (AMH-R2): 63551

CC(C)C[C@@H](NC(=O)[C@@H](C)NC(=O)[C@@H](CCCNC(=N)N)NC(=O)[C@H](CCC(N)=O)NC(=O)[C@H](CC(N)=O)NC(=O)[C@@H](C)NC(=O)[C@H](CC(N)=O)NC(=O)[C@H](C)NC(=O)[C@H](Cc1ccccc1)NC(=O)[C@H](Cc1c[nH]cn1)NC(=O)[C@@H](CCCCN)NC(=O)[C@H](CC(N)=O)NC(=O)[C@H](CO)NC(=O)[C@@H](C)NC(=O)CNC(=O)[C@@H](Cc1c[nH]c2ccccc12)NC(=O)[C@H](N)CCCNC(=N)N)C(=O)O [SEQ ID NO: 4, rwGaSNkHFANaNQral] (H-[dR][dW]G[dA]SN[dK]HFAN[dA]NQ[dR][dA][dL]-OH; N-terminus and C-terminus assumed)
GC toxicity (granulosa cells (GCs); 80 μg/ml): low GC toxicity
